Source: paper PMC11142921 (2024)
Where a chain is given by its changes, count along the chain named. Read-outs that look alike come from different tables or passages of the source.

B1: hA362 Fab (Fab, V domains shown)
VH: EVQLVESGGGLVQPGGSLRLSCAASGFNVSYYSIHWVRQAPGKGLEWVASISPYYGSTYYADSVKGRFTISADTSKNTAYLQMNSLRAEDTAVYYCARHPYRKGYSGLDYWGQGTLVTVSS
VL: DIQMTQSPSSLSASVGDRVTITCRASQSVSSAVAWYQQKPGKAPKLLIYSASSLYSGVPSRFSGSRSGTDFTLTISSLQPEDFATYYCQQSSYLPLFTFGQGTKVEIK
B2: hA362 IgG (antibody, V domains shown)
VH: B1 VH
VL: B1 VL
B3: E6 (affinity-matured variant of hI365) (antibody, V domains shown)
VH: EVQLVESGGGLVQPGGSLRLSCAASGFNFYYSIHWVRQAPGKGLEWVASISPYTDRTSYADSVKGRFTISADTSKNTAYLQMNSLRAEDTAVYYCARKHPGRYPNWGFALDYWGQGTLVTVSS
VL: B1 VL with S92M, Y93S, L94S, P95Q, F97V
B4: E3 (affinity-matured variant of hI365) (antibody, V domains shown)
VH: B3 VH with Y30F, R56Y, R102S, N105F
VL: DIQMTQSPSSLSASVGDRVTITCRASQSVSSAVAWYQQKPGKAPKLLIYSASSLYSGVPSRFSGSRSGTDFTLTISSLQPEDFATYYCQQSSSSLVTFGQGTKVEIK
B5: hI365 IgG (antibody, V domains shown)
VH: B3 VH with T54S, D55G, R56Y, R102S, N105F, F108W
VL: B4 VL

Legend:
Assay in all cases: BLI
hPAD4 Y435A = hPAD4 Y435A (human, UniProt Q9UM07 1-663, Y435A)
hPAD4 N438R = hPAD4 N438R (human, UniProt Q9UM07 1-663, N438R)
[1] = target: hPAD4 R8E–Y435A double mutant (human, UniProt Q9UM07 1-663, R8E | Y435A)
[2] = target: T1, human protein arginine deiminase 4 (hPAD4), wild type (human, UniProt Q9UM07 1-663, biotin on the N-terminal AviTag)
[3] = target: T1, human protein arginine deiminase 4 …; remark: listed apart in the source
[4] = target: T1, human protein arginine deiminase 4 …; remark: listed apart in the source

T1 sequence (Q9UM07 whole entry): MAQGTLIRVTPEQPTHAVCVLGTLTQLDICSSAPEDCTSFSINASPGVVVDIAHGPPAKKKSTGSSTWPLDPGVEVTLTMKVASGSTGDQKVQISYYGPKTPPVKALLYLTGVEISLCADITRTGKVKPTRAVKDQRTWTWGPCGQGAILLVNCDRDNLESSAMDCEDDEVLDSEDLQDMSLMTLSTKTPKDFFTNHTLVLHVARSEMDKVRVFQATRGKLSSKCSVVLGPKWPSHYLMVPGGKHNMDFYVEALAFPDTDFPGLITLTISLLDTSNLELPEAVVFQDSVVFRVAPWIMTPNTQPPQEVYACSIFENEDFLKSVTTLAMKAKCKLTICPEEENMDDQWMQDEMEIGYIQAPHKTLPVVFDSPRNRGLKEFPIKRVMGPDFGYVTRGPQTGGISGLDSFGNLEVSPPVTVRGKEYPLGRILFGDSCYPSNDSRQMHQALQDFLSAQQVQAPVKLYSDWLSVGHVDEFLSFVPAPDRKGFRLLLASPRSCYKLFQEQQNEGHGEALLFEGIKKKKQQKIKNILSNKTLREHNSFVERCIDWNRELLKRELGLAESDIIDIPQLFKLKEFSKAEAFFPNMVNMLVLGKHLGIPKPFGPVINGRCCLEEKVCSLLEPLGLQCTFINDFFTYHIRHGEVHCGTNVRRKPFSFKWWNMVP
Sequence of hPAD4 Y435A (Q9UM07 whole entry Y435A): as the sequence (Q9UM07 whole entry) above, with Y435A counted along it
Sequence of hPAD4 N438R (Q9UM07 whole entry N438R): as the sequence (Q9UM07 whole entry) above, with N438R counted along it
Sequence of hPAD4 R8E–Y435A double mutant (Q9UM07 whole entry R8E/Y435A): as the sequence (Q9UM07 whole entry) above, with R8E, Y435A counted along it

Row | Binder | Kd [3] [nM] | Kd [4] [nM] | other results
1 | B1 |  |  | Kd (hPAD4 Y435A): 17.5 nM; Kd (hPAD4 N438R): 1.56 nM; Kd [1]: 269 nM; Kd [2]: 1.7 nM
2 | B2 | 0.001 |  | 
3 | B3 |  | 1.3 | 
4 | B4 |  | 2.4 | 
5 | B5 | 1.8 |  | 
